This is an account of results in US20110059051A1.

The experiment addresses Gal4-DNA binding domain fusion with PGC-1α (yeast) (UniProt P04386). The experiment can be described thus: cell-based or functional assay.

“PRDM16 expressed from pcDNA-Prdm16 plasmid in cos7 cells (from UniProt A2A935 1-1275)” came in with a transactivation of the UAS-Firefly Luciferase reporter by gal4-pgc1α of 200 fold.
